The results in this text go back to patent US20240368239A1, “Novel bispecific protein and use thereof” (SL METAGEN, priority 2020, published 2024).

“Also recorded” adds a separate entry of the source.

For one data set, the target named is GLP-1 receptor (Homo sapiens, UniProt P43220). The settings on record: GLP-1 activity.
Data set [1] is described as follows: In vivo pharmacokinetics profile after subcutaneous administration (GLP-1-Fc ELISA and GLP-2-Fc ELISA). Details: species or system male SD (Sprague Dawley) rats. The settings on record: rat, 1 mg/kg SC. The protocol:
First, each protein was administered to 3 male SD (Sprague Dawley) rats per group at a dose of 1 mg/kg by subcutaneous (SC) route. Before injection and after 0.5, 1, 5, 10, 24, 48, 72, 120, and 168 hours after the injection, blood was collected and stored at room temperature for 30 minutes to aggregate. After centrifuging the aggregated blood at 3,000 rpm for 10 minutes, serum of each sample was collected and stored in a cryogenic freezer. Analyses were performed by an assay designed to specifically detect the GLP-1 site and Fc in the administered protein (GLP-1-Fc ELISA) and an assay designed to specifically detect the GLP-2 site and Fc in the administered protein (GLP-2-Fc ELISA). Specifically, a method of loading a biological sample on a plate coated with an antibody that binds to mouse-derived human immunoglobulin G4 (IgG4) to detect the target protein using a biotinylated anti-GLP-1 antibody (GLP-1-Fc ELISA), and a method of loading a biological sample on a plate coated with a monoclonal antibody that specifically reacts with GLP-2, to detect the target protein using a secondary antibody having HRP conjugated to mouse-derived human immunoglobulin G4 (IgG4) (GLP-2-Fc ELISA) were used. The obtained and prepared serum samples were loaded with appropriate dilutions to be analyzed at a position on a straight line of the standard curve.
(In an ELISA, binding on a coated surface is turned into a signal by an enzyme label.)

Data set [2] relates to B6 normal mice. Briefly: Small intestine weight and body weight (GLP-1-Fc homodimer, GLP-2-Fc homodimer, MG12-1, MG12-4). The settings on record: SC twice a week, 4 doses; homodimers 10 nmol/kg, MG12 20 nmol/kg. The class given is in vivo. The text has this:
In addition, the present inventors conducted the same experiment as above while only varying the administered substance, in order to confirm whether the bispecific fusion proteins (MG12-1 and MG12-4) designed in a form other than MG12-5 also increase the small intestine weight and energy absorption rate of experimental animals. Specifically, PBS, 10 nmol/kg GLP-1-Fc homodimer, 10 nmol/kg GLP-2-Fc homodimer, 20 nmol/kg MG12-1, and 20 nmol/kg MG12-4 were subcutaneously administered. The drug was administered twice a week for a total of 4 times for 2 weeks. After 4 doses, the body weight was measured before autopsy, and the small intestine was excised after the autopsy and weighed. After the autopsy, the entire gastrointestinal tract of the mouse was separated, the mesentery and the pancreas were excised, and the area where the ileum and the cecum meet was cut to separate the small intestine and the large intestine. The separated small intestine was perfused and washed with 10% neutral formalin to remove the contents, and was weighed after removing the neutral formalin with an absorbent towel.

For the next data set, the system named is Balb/c-nude mice. Briefly: PET-MRI tissue distribution of Zr89-labelled proteins. The class given is in vivo. The note with it: Zr89 label, SC. The source says:
Next, the present inventors performed an experiment in Balb/c-nude mice in order to observe the distribution in each tissue organ following the administration of a substance. Zr^89 was used as a radiotracer for tracking the distribution after administration of each substance. Each substance to be administered was labeled with Zr^89 as a reaction condition and a chelator selected through a preliminary test. The labeled Zr^89-protein was purified using a PD-10 column, and Zr^89 labeling efficiency and purity were confirmed using Radio TLC and SEC-HPLC. The labeling efficiency of the Zr^89-protein of 90% or more and the purity of 80% or more were determined to be appropriate, and the labeled protein was administered subcutaneously at 0.2 mCi/0.2 cc. Each administration substance was administered to three animals and static images for 20 minutes were obtained using PET-MRI at 1 hour, 6 hours, 24 hours, 48 hours, and 168 hours after injection. Through image analysis, the distribution of drugs as a function of time in the liver, small intestine, and large intestine was expressed as SUV (Standardized Uptake Value) and comparatively analyzed.

Data set [3] concerns B6 normal mice. Description: Fluorescence spectrometry tissue distribution of Cy5.5-labelled substances. The class given is in vivo. Here is the method:
Next, the present inventors performed an experiment in B6 normal mice in order to observe the distribution in each tissue and organ according to the administration of a bispecific fusion protein according to an embodiment of the present invention. Cy5.5 was used as a fluorophore for tracking the distribution after administration of each substance. Buffer exchange was performed for each substance to be administered, MG12-1, MG12-4, and GLP-1Fc homodimer with boric acid buffer (pH 8.5), and with reference to the protocol of the Cy5.5 labeling kit (GE, #PA15605) were allowed to react with an appropriate amount of Cy5.5 overnight under refrigeration conditions. Unreacted Cy5.5 in the reaction-completed substance was removed through the PBS substitution process, and whether Cy5.5 was reacted well was confirmed through the final SDS-PAGE. Each administered substance was diluted with 10% DMSO/PBS to have the same fluorescence intensity using an ELISA plate reader capable of measuring fluorescence intensity before being administered.

Setting [4] is: 24 hours after administration, Cy5.5 label.

Chain of GLP-1 receptor (P43220 24-463, species assumed): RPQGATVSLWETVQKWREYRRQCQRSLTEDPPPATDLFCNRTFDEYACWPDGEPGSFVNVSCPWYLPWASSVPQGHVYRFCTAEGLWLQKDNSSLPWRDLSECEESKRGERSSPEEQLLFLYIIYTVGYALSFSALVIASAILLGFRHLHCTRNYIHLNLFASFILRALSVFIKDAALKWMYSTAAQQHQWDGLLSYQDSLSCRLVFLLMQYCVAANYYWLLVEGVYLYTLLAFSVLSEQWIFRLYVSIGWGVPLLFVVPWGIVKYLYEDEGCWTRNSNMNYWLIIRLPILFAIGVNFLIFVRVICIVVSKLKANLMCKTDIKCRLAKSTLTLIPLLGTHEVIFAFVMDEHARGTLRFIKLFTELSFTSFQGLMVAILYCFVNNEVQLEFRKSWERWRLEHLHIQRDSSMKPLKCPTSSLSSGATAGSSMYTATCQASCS
Description for GLP-1 receptor: After culturing the cells in a 37° C., 5% CO2 incubator for about 16 hours, the cells were treated with 20 μL/well of a test solution of various concentrations to be evaluated and allowed to react in a 37° C., 5% CO2 incubator for 5 hours. After the reaction was complete, the plate was treated with Bright-Glo™ assay reagent at 100 μL/well, and then was allowed react at room temperature for 2 minutes. After the reaction was completed, the plate was inserted into a Luminometer and the degree of bioluminescence was measured.

B1: MG12-1: Knob/hole Fc heterodimer: GLP-1 (SEQ 1), glycan linker, first fusion protein SEQ 24; GLP-2 (SEQ 17), second fusion protein SEQ 32 (protein)
chain 1: HGEGTFTSDVSSYLEGQAAKEFIAWLVKGRGGGGGSGGGGSGGGGSAKNTTAPATTRNTTRGGEEKKKEKEKEEQEERTHTCPPCPSHTQPLGVFLFPPKPKDTLMISRTPEVTCVVVDVSQEDPEVQFNWYVDGVEVHNAKTKPREEQFNSTYRVVSVLTVLHQDWLNGKEYKCKVSNKGLPSSIEKTISKAKGQPREPQVYTLPPCQEEMTKNQVSLWCLVKGFYPSDIAVEWESNGQPENNYKTTPPVLDSDGSFFLYSRLTVDKSRWQEGNVFSCSVMHEALHNHYTQKSLSLSLGK
chain 2: HGDGSFSDEMNTILDNLAARDFINWLIQTKITDGGGGSGGGGSGGGGSEKEKEEQEERTHTCPPCPSHTQPLGVFLFPPKPKDTLMISRTPEVTCVVVDVSQEDPEVQFNWYVDGVEVHNAKTKPREEQFNSTYRVVSVLTVLHQDWLNGKEYKCKVSNKGLPSSIEKTISKAKGQPREPQVCTLPPSQEEMTKNQVSLSCAVKGFYPSDIAVEWESNGQPENNYKTTPPVLDSDGSFFLVSRLTVDKSRWQEGNVFSCSVMHEALHNHYTQKSLSLSLGK
One may read the Cmax as the highest concentration seen after dosing. In general, Tmax refers to the time from dosing to the highest level. As for B1, the “activity reduced due to glycosylation” value with GLP-1 receptor is reported as “about 11 times”. In addition, in data set [1] (GLP-1-Fc ELISA (Table 5)), the AUClast turned out to be 13919.8 ± 824.9 ng·h/mL, the Cmax is 442.2 ± 20.8 ng/mL, the Half-life came out at 16.5 ± 6.3 h and the Tmax is 10 h. For the same molecule, in data set [1] (GLP-2-Fc ELISA (Table 6)), the AUClast was found to be 78639.0 ± 11205.3 ng·h/mL, the Cmax was found to be 1136.7 ± 261.0 ng/mL, the Half-life was found to be 43.7 ± 1.8 h and the Tmax is recorded as 24.0 ± 0.0 h. In the data set with B6 normal mice [2], the small intestine weight result is listed as “greater increase in small intestine weight than the GLP-2-Fc homodimer administered group; also recorded: superior effect of increasing small intestine weight” and the “weight change before autopsy (body weight)” value is given as “numerical increase in body weight”. Also, in the data set with Balb/c-nude mice, the “distribution to the liver (SUV)” value is “reduced or showed no difference compared to Fc”; the “distribution to the small intestine and large intestine (SUV)” value was “significantly high compared to that of GLP-1-Fc homodimer and GLP-2-Fc homodimer”. In addition, in the data set on B6 normal mice [3] (setting [4]), the “Average fluorescence intensity, Brain” value worked out at 489; the “Average fluorescence intensity, Large intestine” value came out at 3702; the “Average fluorescence intensity, Small intestine” value is 7320. The “distribution in the small intestine and the large intestine” value in the data set on B6 normal mice [3] (compared to GLP-1-Fc homodimer) is on record as “larger”.
